Reference: doi:10.1101/757856

Key:
[1] = biological target: full-length human Neurofibromin (His6-tagged, purified) (human) (UniProt P21359); test: negative stain electron microscopy
[2] = biological target: full-length human Neurofibromin (His6-tagged, purified) (human) (UniProt P21359); test: SAXS and SANS
[3] = biological target: full-length human Neurofibromin (His6-tagged, purified) (human) (UniProt P21359); test: SEC
[4] = biological target: full-length human Neurofibromin (His6-tagged, purified) (human) (UniProt P21359); test: AUC
[5] = biological target: full-length human Neurofibromin (His6-tagged, purified) (human) (UniProt P21359); test: SEC-MALS

stoichiometry N [1]: 2
stoichiometry N [2]: 2
stoichiometry N [3]: 2
Kd [4]: < 5 nM
stoichiometry N [4]: 2
stoichiometry N [5]: 2
Substance: full-length human Neurofibromin (His6-tagged, purified), P21359-2 1-2818
